Test [1] deals with T1, panel of four distinct ZIKV strains (H/PF/2013; MR766, MRS-OPY and PV10552). Description: cell-based or functional assay.
Test [2] deals with T1, panel of four distinct ZIKV strains …. Kind of test: cell-based or functional assay. This is another data set of the same source.

We go through 1 molecule from US20190256582A1.

Like-named read-outs stand apart in the source and are kept apart here.

B1: ZKA190 (antibody, V domains shown)
VH: QVQLVESGGGVVQPGRSLRLSCAASGFTFSKYGMHWVRQAPGKGLEWVAVISYEGSNKYYADSVKGRFTISRDNSKNTLYLQMNSLRAEDTAVYYCAKSGTQYYDTTGYEYRGLEYFGYWGQGTLVTVSS
VL: EIVLTQSPGTLSLSPGERATLSCRASQSVSSSYLAWYQQKRGQAPRLLIYDASSRATGIPDRFSGSGSGTDFTLTISRLEPEDFAVYYCQQYGRSRWTFGQGTKVEIK
For B1, the figures for the ZIKV neutralization IC50 (four strains, Vero cells, flow cytometry) in test [1] and in test [2] were 0.004 to 0.05 nM and 0.6 to 8 ng/mL, respectively.
